The values that follow are results of earlier work, collected in patent US10905736B2, “Ezetimibe-associated ApoA-I mimetic peptides showing enhanced synergism” (The Regents of the University of California, priority 2016, dated 2021).

The conditions of the data set: two hours after LDLR-/- mice finished eating WD containing Tg6F; cited from earlier work.

Consider DWLKAFYDKFFEKFKEFF [6F peptide], for which the “presence of intact peptide in small intestine and plasma” value is reported as “found in the small intestine but not in the plasma”.
